Data from patent US20100092455A1 (PIERRE FABRE MEDICAMENT, published 2010).

Assays:
[1] = molecular target: T1, natural human JAM-A protein (F11R / junctional adhesion molecule A), isoform a (human, UniProt Q9Y624 28-299); test: flow cytometry, labeling of MCF-7 cells with 6F4
T1 construct: Natural protein; Mass spectrometry matched it to JAM-A isoform a; also called F11 receptor; JAM-1
T1 sequence: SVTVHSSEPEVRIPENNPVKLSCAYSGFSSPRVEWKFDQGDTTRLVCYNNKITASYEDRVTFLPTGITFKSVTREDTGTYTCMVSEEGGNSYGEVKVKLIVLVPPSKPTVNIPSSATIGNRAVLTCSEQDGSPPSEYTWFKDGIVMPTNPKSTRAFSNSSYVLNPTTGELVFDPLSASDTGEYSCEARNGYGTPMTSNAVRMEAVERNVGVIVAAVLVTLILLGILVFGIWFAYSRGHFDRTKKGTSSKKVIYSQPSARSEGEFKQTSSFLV

[2] = molecular target: T2, recombinant human JAM-A/Fc (R&D Systems ref. 1103-JM) (human, UniProt Q9Y624 28-238); test: SPR (BIAcore X), double reference, Langmuir A+B binding model, 25° C.
T2 construct: also called hJAM-A/Fc; Human JAM-1-Fc
T2 sequence: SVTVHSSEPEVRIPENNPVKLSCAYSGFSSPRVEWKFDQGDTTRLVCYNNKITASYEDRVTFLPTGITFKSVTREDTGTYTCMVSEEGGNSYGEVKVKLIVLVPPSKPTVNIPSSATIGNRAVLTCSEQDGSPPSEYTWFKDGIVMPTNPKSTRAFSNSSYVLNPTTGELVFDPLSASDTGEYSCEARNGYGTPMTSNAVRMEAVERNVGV
Protocol: (§1) FIG. 14 is sensorgrams obtained with a double reference, (Fc2-Fc1)6F4(Fc2-Fc1)HBS-EP. The curve is fitted using a Langmuir A+B binding model.
(§2) Murine monoclonal 6F4 antibody: 1.3 mg/ml [0351] […] Running buffer: HBS-EP (BIAcore) [0354] Binding kit: “Amine” (BIAcore) [0355] Binding buffer: Acetate pH 5.0 (BIAcore) [0356] Capturing antibody: goat IgG Fc anti-human (=GAH, goat anti-human) (Bioscience) [0357] Regeneration buffer: Glycine, HCl pH 1.5 for 30 seconds (BIAcore).

[3] = molecular target: T2, recombinant human JAM-A/Fc (R&D Systems …); test: SPR (BIAcore X), KD=kd/ka
Protocol: as §1, §2

[4] = molecular target: T3, recombinant murine JAM-A/Fc (R&D Systems ref. 1077-JM) (murine, UniProt O88792 27-238); test: western blot, non-reducing, revealed with 6F4; 250, 25 and 10 ng deposited
T3 construct: extracellular domain; Bought product; also called mJAM-A/Fc; Mouse JAM-1-Fc; not shown: Fc part of the bought fusion protein
T3 sequence (looked up): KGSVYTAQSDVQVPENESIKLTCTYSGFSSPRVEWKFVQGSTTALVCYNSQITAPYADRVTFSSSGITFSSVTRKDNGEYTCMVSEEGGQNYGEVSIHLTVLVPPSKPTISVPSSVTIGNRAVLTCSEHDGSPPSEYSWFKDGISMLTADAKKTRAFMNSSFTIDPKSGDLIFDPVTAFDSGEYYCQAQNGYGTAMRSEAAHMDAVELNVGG

[5] = molecular target: T4, recombinant human JAM-B/Fc (R&D Systems ref. 1074-VJ) (human, UniProt P57087 29-236, limits assumed); test: as above
T4 construct: Bought product; also called hJAM-B/Fc; human form of JAM-B; not shown: Fc part of the bought fusion protein
T4 sequence (looked up): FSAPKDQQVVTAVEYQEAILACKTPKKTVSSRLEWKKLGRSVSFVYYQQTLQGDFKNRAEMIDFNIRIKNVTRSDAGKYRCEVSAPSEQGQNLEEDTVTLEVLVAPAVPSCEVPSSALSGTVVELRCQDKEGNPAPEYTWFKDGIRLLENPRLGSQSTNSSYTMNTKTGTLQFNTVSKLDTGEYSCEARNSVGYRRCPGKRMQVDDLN

[6] = molecular target: T5, recombinant human JAM-C/Fc (R&D Systems ref. 1189-J3) (human, UniProt Q9BX67 32-241, limits assumed); test: as above
T5 construct: Bought product; also called hJAM-C/Fc; human form of JAM-C; not shown: Fc part of the bought fusion protein
T5 sequence (looked up): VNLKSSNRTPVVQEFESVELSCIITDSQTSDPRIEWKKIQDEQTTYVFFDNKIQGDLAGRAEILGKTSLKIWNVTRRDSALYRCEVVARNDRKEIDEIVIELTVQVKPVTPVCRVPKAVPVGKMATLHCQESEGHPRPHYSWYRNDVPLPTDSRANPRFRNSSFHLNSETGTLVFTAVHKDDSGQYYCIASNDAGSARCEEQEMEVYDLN

EC50 (read off the curve) [1]: ~0.3 µg/mL | koff [2]: 2.5e-07 s⁻¹ | kon [2]: 138000 M⁻¹ s⁻¹ | Kd [3]: 0.022 nM | binding result [4]: no binding (tested: 250 ng) | binding result [5]: no binding (tested: 250 ng) | binding result [6]: no binding (tested: 250 ng)
B1: murine monoclonal 6F4 antibody (antibody, V domains shown)
VH: EIQLQQSGPELVKPGASVKVSCKASGYSFTDYSMYWVKQSHGKSLEWIGYIDPYNGGTRYNQKFKGKATLTVDKSSSTAFMHLNSLTSEDSAVYYCARQTDYFDYWGQGTTLTVSS
VL: DIQMTQSPSSLSASLGGKVTITCKASQDINNYIAWYQHKPGKGPRLLIHYTSTLQAGIPSRFSGSGSGRDYSFSISNLEPEDIGTYYCLQYDNLWTFGGGTKLEIKR
notes: also called 6F4 MAb; Mab 6F4; copies: 2 + 2
